Test results from article PMC4729829, “BAP1/ASXL1 recruitment and activation for H2A deubiquitination” (Nature Communications, 2016).

Experiments:
[1] = target: T1, full-length BAP1 (BRCA-1-associated protein 1) (human, UniProt Q92560 1-729); assay: ITC; VP-ITC at 25 °C; 25 mM HEPES pH 7.5, 150 mM NaCl, 10% glycerol, 0.5 mM TCEP; 30 μM ASXL1DEU (syringe) titrated into 13 μM BAP1 variant (cell), 10 or 5 μl injections; one-site binding model; conditions: both partners purified
T1 construct: BAP1, uniprot Q92560, full length; Vector pFastBac-NKI-his-3C-LIC; no removal of the tag is described; also called FL BAP1; WT BAP1; source: Sf9 cells, purified (Ni2+ chelating sepharose, Poros HQ anion exchange, Superose 6 SEC)
T1 sequence (looked up): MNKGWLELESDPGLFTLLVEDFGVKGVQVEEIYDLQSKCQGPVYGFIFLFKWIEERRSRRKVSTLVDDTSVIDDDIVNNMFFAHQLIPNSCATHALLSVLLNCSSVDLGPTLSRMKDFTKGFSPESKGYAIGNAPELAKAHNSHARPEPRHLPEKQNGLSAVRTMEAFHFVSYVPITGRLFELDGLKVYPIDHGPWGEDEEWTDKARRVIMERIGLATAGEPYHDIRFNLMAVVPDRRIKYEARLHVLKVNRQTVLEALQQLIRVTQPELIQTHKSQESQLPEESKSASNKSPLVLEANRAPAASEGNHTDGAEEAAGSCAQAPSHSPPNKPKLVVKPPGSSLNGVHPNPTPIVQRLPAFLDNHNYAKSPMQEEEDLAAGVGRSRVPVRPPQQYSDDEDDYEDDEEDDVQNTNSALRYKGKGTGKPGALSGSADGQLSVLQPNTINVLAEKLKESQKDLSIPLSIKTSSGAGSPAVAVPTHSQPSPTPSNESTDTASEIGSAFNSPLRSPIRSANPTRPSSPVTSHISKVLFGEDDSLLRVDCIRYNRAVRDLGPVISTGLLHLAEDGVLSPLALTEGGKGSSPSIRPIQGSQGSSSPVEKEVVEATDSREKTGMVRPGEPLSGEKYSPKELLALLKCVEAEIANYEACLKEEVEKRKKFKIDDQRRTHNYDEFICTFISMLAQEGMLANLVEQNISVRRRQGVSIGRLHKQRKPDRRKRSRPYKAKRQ

[2] = target: T2, BAP1 1-710 (lacks the C-terminal extension) (human, UniProt Q92560 1-710); assay: as above; conditions: both partners purified
T2 construct: BAP1, uniprot Q92560, residues 1-710; Vector pFastBac-NKI-his-3C-LIC; source: Sf9 cells, purified (Ni2+ chelating sepharose, Poros HQ anion exchange, Superose 6 SEC)
T2 sequence (looked up): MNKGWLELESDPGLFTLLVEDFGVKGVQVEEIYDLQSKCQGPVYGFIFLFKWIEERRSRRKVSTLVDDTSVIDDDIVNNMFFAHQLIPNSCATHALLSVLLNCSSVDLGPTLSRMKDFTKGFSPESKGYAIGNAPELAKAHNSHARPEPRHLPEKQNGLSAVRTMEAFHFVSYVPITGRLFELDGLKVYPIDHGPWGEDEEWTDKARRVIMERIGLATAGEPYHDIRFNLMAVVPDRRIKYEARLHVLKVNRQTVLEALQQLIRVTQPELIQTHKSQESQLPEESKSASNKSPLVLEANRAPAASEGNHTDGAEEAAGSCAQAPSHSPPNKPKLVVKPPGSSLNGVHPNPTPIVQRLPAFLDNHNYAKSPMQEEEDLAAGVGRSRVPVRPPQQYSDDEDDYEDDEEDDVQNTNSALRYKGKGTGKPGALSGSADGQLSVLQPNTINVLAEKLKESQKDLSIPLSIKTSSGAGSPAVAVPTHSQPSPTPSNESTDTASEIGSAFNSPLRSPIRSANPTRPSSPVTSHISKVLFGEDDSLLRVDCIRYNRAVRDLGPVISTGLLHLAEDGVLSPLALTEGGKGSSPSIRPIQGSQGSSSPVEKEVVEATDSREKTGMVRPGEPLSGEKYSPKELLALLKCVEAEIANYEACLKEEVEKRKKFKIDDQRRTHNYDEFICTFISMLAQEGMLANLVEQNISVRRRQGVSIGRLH

[3] = target: T3, BRCA-1-associated protein 1 (BAP1), full length, wild type (human, UniProt Q92560 1-729); assay: SEC-MALS; SEC-MALLS, miniDawn detector; Superdex S75 10/30 (ASXL1^DEU), Superose 6 10/30 (BAP1) or Superdex S200 10/30 (BAP1/ASXL1^DEU); 10 mM HEPES pH 7.5, 150 mM NaCl, 0.5 mM TCEP; 4 °C; conditions: both partners purified
T3 construct: BAP1 (BRCA-1-associated protein 1), human, UniProt Q92560, full length; Cloned into pFastBac-NKI-his-3C-LIC; In isolation it forms dimers and higher order oligomers (SEC-MALLS); also called WT BAP1; full-length BAP1; source: Sf9 cells, purified (Ni2+ chelating sepharose, Poros HQ anion exchange, Superose 6 SEC)
T3 sequence (looked up): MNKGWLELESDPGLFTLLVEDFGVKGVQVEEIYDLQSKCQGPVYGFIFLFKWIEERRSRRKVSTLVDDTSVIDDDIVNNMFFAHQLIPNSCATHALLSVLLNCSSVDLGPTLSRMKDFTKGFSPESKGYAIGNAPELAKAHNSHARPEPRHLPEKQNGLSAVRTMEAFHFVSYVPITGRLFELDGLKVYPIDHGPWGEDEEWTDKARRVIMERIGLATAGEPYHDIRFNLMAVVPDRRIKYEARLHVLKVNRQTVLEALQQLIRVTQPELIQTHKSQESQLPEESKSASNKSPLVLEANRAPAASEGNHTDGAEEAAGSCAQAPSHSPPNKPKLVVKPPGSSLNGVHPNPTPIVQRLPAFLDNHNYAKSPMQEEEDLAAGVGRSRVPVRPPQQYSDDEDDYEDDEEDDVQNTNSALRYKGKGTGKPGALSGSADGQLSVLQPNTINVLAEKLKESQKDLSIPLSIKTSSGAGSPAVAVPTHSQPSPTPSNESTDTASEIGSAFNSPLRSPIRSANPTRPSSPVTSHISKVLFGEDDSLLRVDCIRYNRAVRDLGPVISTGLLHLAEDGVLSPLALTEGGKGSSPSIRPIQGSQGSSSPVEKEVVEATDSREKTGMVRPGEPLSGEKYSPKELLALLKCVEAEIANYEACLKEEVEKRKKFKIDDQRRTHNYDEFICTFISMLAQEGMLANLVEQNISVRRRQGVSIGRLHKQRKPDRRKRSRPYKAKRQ

[4] = target: T3, BRCA-1-associated protein 1 (BAP1), …; assay: ITC; 30 μM ASXL1^DEU in the syringe titrated (10 or 5 μl injections) into 13 μM BAP1 variant in the cell; 25 °C; 25 mM HEPES pH 7.5, 150 mM NaCl, 10% glycerol, 0.5 mM TCEP; one-site binding model; conditions: both partners purified
[5] = target: T4, full-length BAP1 (BRCA-1-associated protein 1) (human), Q92560; assay: SEC-MALS; miniDawn detector in line with Superdex S75 10/30 (ASXL1DEU), Superose 6 10/30 (BAP1) or Superdex S200 10/30 (BAP1/ASXL1DEU); 10 mM HEPES pH 7.5, 150 mM NaCl, 0.5 mM TCEP, 4 °C; molecular weights from the refractive index signal; conditions: remark: other sources report otherwise
T4 chain: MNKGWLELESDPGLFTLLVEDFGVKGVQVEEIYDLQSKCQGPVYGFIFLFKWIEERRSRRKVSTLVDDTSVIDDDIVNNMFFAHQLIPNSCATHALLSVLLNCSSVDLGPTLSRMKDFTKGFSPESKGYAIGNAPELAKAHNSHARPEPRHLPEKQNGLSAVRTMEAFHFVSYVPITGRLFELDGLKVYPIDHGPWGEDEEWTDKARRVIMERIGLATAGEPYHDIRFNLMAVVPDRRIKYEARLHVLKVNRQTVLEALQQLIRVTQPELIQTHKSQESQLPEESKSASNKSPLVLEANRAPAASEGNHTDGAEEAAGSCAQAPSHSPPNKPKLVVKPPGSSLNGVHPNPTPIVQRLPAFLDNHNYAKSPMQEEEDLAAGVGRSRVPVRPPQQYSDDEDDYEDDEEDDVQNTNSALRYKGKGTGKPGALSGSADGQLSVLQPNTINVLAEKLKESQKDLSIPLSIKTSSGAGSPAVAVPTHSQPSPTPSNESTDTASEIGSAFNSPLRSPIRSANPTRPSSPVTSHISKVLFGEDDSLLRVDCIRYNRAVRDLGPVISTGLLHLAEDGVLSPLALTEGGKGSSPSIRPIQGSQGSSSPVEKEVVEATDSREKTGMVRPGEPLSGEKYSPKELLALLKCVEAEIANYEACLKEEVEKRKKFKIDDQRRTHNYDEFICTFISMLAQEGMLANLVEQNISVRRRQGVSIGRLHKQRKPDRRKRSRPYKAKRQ

B1: ASXL1 DEUBAD domain (aa 238-390) (domain or fragment, human, UniProt Q8IXJ9 238-390, looked up)
chain: ATGQMKRNRGEEIDFETPGSILVNTNLRALINSRTFHALPSHFQQQLLFLLPEVDRQVGTDGLLRLSSSALNNEFFTHAAQSWRERLADGEFTHEMQVRIRQEMEKEKKVEQWKEKFFEDYYGQKLGLTKEESLQQNVGQEEAEIKSGLCVPG
notes: ASXL1, uniprot Q8IXJ9, DEUBAD domain, residues 238-390; Vector pET-NKI-his-3C-LIC; also called His-ASXL1DEU; source: E. coli, purified (Ni2+ chelating sepharose, Poros HQ anion exchange, Superdex 75 SEC)
B1 was tested. Which “stoichiometry N” value [1] did it give?
Its value is 0.37 ± 0.002.

And the Kd [2]?
The Kd was 5 ± 0.16 nM.

What about the “stoichiometry N” value [2] of the same binder?
Its value is 0.27 ± 0.001.

B2: ASXL1 DEUBAD domain (aa 238-390) (domain or fragment, human, UniProt Q8IXJ9 238-390, looked up)
chain: ATGQMKRNRGEEIDFETPGSILVNTNLRALINSRTFHALPSHFQQQLLFLLPEVDRQVGTDGLLRLSSSALNNEFFTHAAQSWRERLADGEFTHEMQVRIRQEMEKEKKVEQWKEKFFEDYYGQKLGLTKEESLQQNVGQEEAEIKSGLCVPG
notes: ASXL1 (additional sexcombs like 1), human, UniProt Q8IXJ9, DEUBAD domain, aa 238-390; Cloned into pET-NKI-his-3C-LIC; printed as His-ASXL1^DEU; Monomeric in SEC-MALLS; also called His-ASXL1^DEU; WT ASXL1^DEU; source: E. coli, purified (Ni2+ chelating sepharose, Poros HQ anion exchange, Superdex 75 SEC)
How did the “stoichiometry N” value [3] turn out when B2 was run?
The value was 2 BAP1 molecules per ASXL1^DEU molecule.

And the Kd [4]?
Its Kd is 18 nM.

And the “stoichiometry N” value [4]?
The value was 0.25 to 0.5.

B3: ASXL1 DEUBAD domain (aa 238-390) N310A/E311K/F312A (domain or fragment, human, UniProt Q8IXJ9 238-390, looked up)
chain: ATGQMKRNRGEEIDFETPGSILVNTNLRALINSRTFHALPSHFQQQLLFLLPEVDRQVGTDGLLRLSSSALNAKAFTHAAQSWRERLADGEFTHEMQVRIRQEMEKEKKVEQWKEKFFEDYYGQKLGLTKEESLQQNVGQEEAEIKSGLCVPG
notes: ASXL1, uniprot Q8IXJ9, DEUBAD domain, residues 238-390, triple mutant of the NEF region; Variant of Dm4; also called ASXL1NEF DEU; NEF; source: E. coli, purified (Ni2+ chelating sepharose, Poros HQ anion exchange, Superdex 75 SEC)
B3 was tested. Which Kd [1] did it give?
Its Kd is 46 ± 0.14 nM.

What about the “stoichiometry N” value [1] of the same binder?
Its value is 0.32 ± 0.003.

B4: ASXL1 DEUBAD domain triple mutant N310A/E311K/F312A (domain or fragment, human, UniProt Q8IXJ9 238-390, looked up)
chain: ATGQMKRNRGEEIDFETPGSILVNTNLRALINSRTFHALPSHFQQQLLFLLPEVDRQVGTDGLLRLSSSALNAKAFTHAAQSWRERLADGEFTHEMQVRIRQEMEKEKKVEQWKEKFFEDYYGQKLGLTKEESLQQNVGQEEAEIKSGLCVPG
notes: ASXL1, human, UniProt Q8IXJ9, DEUBAD domain, aa 238-390, with N310A, E311K and F312A; Variant of m2; also called ASXL1NEF^DEU; NEF; source: E. coli, purified (Ni2+ chelating sepharose, Poros HQ anion exchange, Superdex 75 SEC)
How did the Kd [4] turn out when B4 was run?
Its Kd is 45 nM.

B5: full-length BAP1 (BRCA-1-associated protein 1), Q92560 1-729 (enzyme)
chain: MNKGWLELESDPGLFTLLVEDFGVKGVQVEEIYDLQSKCQGPVYGFIFLFKWIEERRSRRKVSTLVDDTSVIDDDIVNNMFFAHQLIPNSCATHALLSVLLNCSSVDLGPTLSRMKDFTKGFSPESKGYAIGNAPELAKAHNSHARPEPRHLPEKQNGLSAVRTMEAFHFVSYVPITGRLFELDGLKVYPIDHGPWGEDEEWTDKARRVIMERIGLATAGEPYHDIRFNLMAVVPDRRIKYEARLHVLKVNRQTVLEALQQLIRVTQPELIQTHKSQESQLPEESKSASNKSPLVLEANRAPAASEGNHTDGAEEAAGSCAQAPSHSPPNKPKLVVKPPGSSLNGVHPNPTPIVQRLPAFLDNHNYAKSPMQEEEDLAAGVGRSRVPVRPPQQYSDDEDDYEDDEEDDVQNTNSALRYKGKGTGKPGALSGSADGQLSVLQPNTINVLAEKLKESQKDLSIPLSIKTSSGAGSPAVAVPTHSQPSPTPSNESTDTASEIGSAFNSPLRSPIRSANPTRPSSPVTSHISKVLFGEDDSLLRVDCIRYNRAVRDLGPVISTGLLHLAEDGVLSPLALTEGGKGSSPSIRPIQGSQGSSSPVEKEVVEATDSREKTGMVRPGEPLSGEKYSPKELLALLKCVEAEIANYEACLKEEVEKRKKFKIDDQRRTHNYDEFICTFISMLAQEGMLANLVEQNISVRRRQGVSIGRLHKQRKPDRRKRSRPYKAKRQ
Which stoichiometry N [5] does the source give for B5 here?
Its stoichiometry N is 2.
